In US20160053277A1, “Compositions Having Dicamba Decarboxylase Activity and Methods of Use” (PIONEER HI-BRED INTERNATIONAL, INC., priority 2013, published 2016):

Tests used:
[1] = Saturation mutagenesis of SEQ ID NO:109: dicamba decarboxylation activity of point mutants (carbon dioxide released); conditions: decarboxylation activity (carbon dioxide released) of point mutant compared with unmutated backbone protein; backbone SEQ ID NO: 109
[2] = 14C assay with IPTG-induced recombinant E. coli cells: 14CO2 captured from [14C]-carboxyl-labeled dicamba; conditions: for decarboxylation activity of dicamba: among the 108 sequences tested, recombinant E. coli cells; for Enzymatic Detection level: dicamba decarboxylation activity of the protein of the given SEQ ID NO, High / Low / No; for Dicamba Decarboxylase Activity: induced recombinant E. coli cells, [14C]-carboxyl-labeled dicamba, 14CO2 capture

B1: 81 (protein, listed as Verticillium dahliae)
chain: MAASTKPKVVDIHTHMYPPSYIDILTSRTAIPVVRTFPQAADPRLILLDAEQQALDAALQDPTAKPPGRPLTSHYASLDQKIHFMDTHSIDISVVSLANPWLDFIEPKEAAATARSVNDEFEAMCASQPGRLFFFAALPLTAPLPALLEAVRHVAELEHCRGVILGTSGLGSGLDDPELVPVLEAVAAAALTVFLHPHYGLPNDVWGPRASAEYGHVLPLALGFPMETTIAVARMYLAGVFDRVPALRMLLAHSGGTLPFLAGRIESCILHDGQLVAEGKVGAARRTIWDVLREQVYLDAVIYSEIGLKAAIAASGGADRLMFGTDHPFFPPLGTDEQAKKESRINAGGSRPMITGNAMINGHGGLCNHITQSDYQDVVL
- Fold Activity [1]: 1.2
- decarboxylation activity of dicamba [2]: showed decarboxylation activity of dicamba
- Enzymatic Detection level [2]: High
- Dicamba Decarboxylase Activity [2]: High

B2: 56 (protein)
chain: MAKIICLEEHYLDSELGRACMPVALEQAPFLGDWGKTVADGHNPDRSRPQIEKNALINAKGADLGSRRLRDMDEAGITLQILSVGGFPQLAPEDEAVTLNTAANDRLAEAVRNHPDRFAAFATLPWAQPKDAENELVRAVEKLGFKGALLNGRPSSCFLDHPDYDSLLSRFNKLNVPLYLHPGLPLKSVQQAYFTGFSAEVNARLSMFGWGWHHEAGIHLLRLMLSGAFDKYPNMQVISGHWGEMLPFWLQRLDDSLPLAATGLSRTLTRTFQEHVYVTPSGMLTLPHFKFIYELMGAERILFSVDYPYQTLDGVKTFIDSLPVNKAEKEAIAFRNAERLLGITA
modifications: Enterobacter aerogenes
- Fold Activity [1]: 1.3
- decarboxylation activity of dicamba [2]: showed decarboxylation activity of dicamba
- Enzymatic Detection level [2]: High
- Dicamba Decarboxylase Activity [2]: High

B3: 53 (protein, listed as Granulicella tundricola)
chain: MARTITLEEHFVTDSFLRATGAYDKPAPPWLAQLQPKLLDLGDGRIAAMDEAGIDLQVLSLAALGFDALDAATATPLVHDINDELAAAVRANPTRLAAFASLALKDPQSAARELERAIQKLGFRGVLLDGTTDGLFLDDPRFTPVFEAAVALNVPIYLHPAPPPESVFDTYFTGLPEGVGQMLSIAGWGWHAETALHTLRLITNGVFDRYPTLQLIIGHMGEMLPMALARTSKALSHAARLRQPVAAYFQSNIHLTTSGYFTQPPLRCALDVVGIDRLMFSIDYPFSANTLGRDYLTELEQTLTPEDLAKLIHRNAESLLNLS
- Fold Activity [1]: 1.6
- decarboxylation activity of dicamba [2]: showed decarboxylation activity of dicamba
- Enzymatic Detection level [2]: High
- Dicamba Decarboxylase Activity [2]: High

B4: 87 (protein, listed as Novosphingobium sp.)
chain: MASDIATAADLQTGGRQGYLRIATEEAFATRDQIDVYLRMVRDGTADRGMTSLWGFYAQSPSARATQIIERLLDLGEQRLADMDAAGIDKAVLALTSPGVQPLLDMEEARRIAGNANDRLAERCAAHPDRFIGMTAVAPQDPQWSAREILRGATQLGFKGVQINSHTQGRYLDEPFFDPIFRALGDVGQPLYIHPGTPPDSMIGPLLDAGLDGAIYGFGVETGMHLLRLITAGIFDRYPDLQIMVGHMGEALPYWLYRLDYMHQAGIRSQRYERMRPLKRTIAGYFRSNVLVTCSGMAWEPAIQFARQVMGEDRVMYAMDYPYQYEADEVRALDVMDLSPESKRKFFQTNAERWFDL
- Fold Activity [1]: 1.4
- decarboxylation activity of dicamba [2]: showed decarboxylation activity of dicamba
- Enzymatic Detection level [2]: High
- Dicamba Decarboxylase Activity [2]: High

B5: 2 (protein, listed as Serratia sp.)
chain: MAKIICLEEHTLDKALVMASMPAALEQAPFLSDWGKTVTDGNLPDRSRPQIEKNDLINIKGADIGRGRLDDMDVAGITMQVLSVGGFPHLISAAEGVDLNRAANDRLADAVNAHPDRFAAFATLPWAQPDSAEKELERAVKELGFKGALLNGRPSTHFLDHPDYDGLLARFNALGVPLYLHPGLPVRSVQQAYYGGFSDEVTARLSMFGWGWHHEAGIHLLRLILSGAFDKYPNLQVISGHWGEMLPFWLQRLDDSLPQAATGLRRTIAQTFKEQVYVTPSGMLTLPHFQFIYALLGAERIIFSVDYPYQTLDGVKAFIQSLPVPEEAKEAIAFRNAERLLGLTS
- Fold Activity [1]: 1.1
- decarboxylation activity of dicamba [2]: showed decarboxylation activity of dicamba
- Enzymatic Detection level [2]: High
- Dicamba Decarboxylase Activity [2]: High

B6: 55 (protein, listed as Serratia sp.)
chain: MAKIICLEEHTLDKALVMASMPAALEQAPFLSDWGKTVTDGNLPDRSRPQIEKNDLINIKGADIGRGRLDDMDVAGITMQVLSVGGFPHLISAAEGVDLNRAANDRLADAVNAHPDRFAAFATLPWAQPDSAEKELERAVKELGFKGALLNGRPSTHFLDHPDYDGLLARFNALGVPLYLHPGLPVRSVQQAYYGGFSDEVTARLSMFGWGWHHEAGIHLLRLILSGAFDKYPNLQVISGHWGEMLPFWLQRLDDSLPQAATGLRRTIAQTFKEQVYVTPSGMLTLPHFQFIYALLGAERIIFSVDYPYQTLDGVKAFIQSLPVPEEAKEAIAFRNAERLLGLTS
- Fold Activity [1]: 1.5
- decarboxylation activity of dicamba [2]: showed decarboxylation activity of dicamba
- Enzymatic Detection level [2]: High
- Dicamba Decarboxylase Activity [2]: High

B7: 79 (protein)
chain: MATTTTPSTLIATLESHLTPTLAFTSPTTSPTQPALHLIPPTTLTKLRNLGPGRVKDMHMLGHSRQIISHIPVAAPPQICSRFNDAIHAATMTNTAKFSVLAVLPTDGMEAAKELARCVSKYRFVGGVIGLNRGLRINGEGWEELWGLAERLRIPIMFREMWPLAFEIVDYQHHLPYSALGPILTQLHTSHTSSPLPLVRLYLSSVFDHYPSLRLVLAHPGSLPSLVPRIESLINSIPATDKPKRSFLDVWQHNIYLTTADAQDMSSLRALLEQIPVDRVLYASNYPFEERGNELMNELRESEFLTNIEWERVAWVNAETLFNLKEAGTKEARQLTTIPSSRS
modifications: Pyrenophora teres
- Fold Activity [1]: 0.9
- decarboxylation activity of dicamba [2]: showed decarboxylation activity of dicamba
- Enzymatic Detection level [2]: High
- Dicamba Decarboxylase Activity [2]: High

B8: 58 (protein)
chain: MARVIALEEHYATTEFLRGPGTWLASRPGIVEPAGDLGDGRIAAMDQAGVDLAVLSLAAPGVEQLDPDDAVRLARDCNDQLAAAVRRYPDRLAGFATVPTSAPDRAADELERAVRGLGFPGAVINGHSRGRYLDDPFFEPVLARAAELQAPIYLHPTIPPAGVIESSYAGFAEPVTFALATVGWGWHINTATHALRMILGGVFDRHPSLQMIIGHMGEATSFMLPRFDATLKPELTGLNHPVSSYLRENFHYTFANFNDHATYANLVAQVGIERVAFSADYPFGSMVDARAFLDGLPLSDDERAAISHRNAEKLLGL
modifications: Mycobacterium colombiense
- Fold Activity [1]: 1.5
- decarboxylation activity of dicamba [2]: showed decarboxylation activity of dicamba
- Enzymatic Detection level [2]: High
- Dicamba Decarboxylase Activity [2]: High

B9: 57 (protein)
chain: MAKLICVEEHVLDPAVGAATQSLVRAEAPYLPDWGSRVLDGRHVADRSRPHVIAPSESARKALEMGEPRLADMDAASIDMQVLSYGGFPQLLPAAQAIDLNRAANDKLALAAQAHPARFAGFATLPWQAPEAAARELERAVKQLGLKGALINGRPGDTFLDDARYAPILAAFDELKVPLYVHPGLPLPAVQAPYYGGFERELSARLAMFAWGWHNEAGIQVVRMLLAGVFDRHPRLQLISGHWGEMVPFFLQRLEDSIPQEASGLQRPIVQTYREHVYISPSGMFTLPHFQFIHALMGAQRILYSIDYPYQSLDGARAFIERLPISDTDKALIAHRNAERLLHL
modifications: Collimonas fungivorans
- Fold Activity [1]: 2
- decarboxylation activity of dicamba [2]: showed decarboxylation activity of dicamba
- Enzymatic Detection level [2]: High
- Dicamba Decarboxylase Activity [2]: High

B10: 52 (protein, listed as Streptomyces sp.)
chain: MAKIIALEEHFSDPAVAKAGAARAQALSPGFAASYSPASGLPYSPSPEVLENLAEKRLADMDAGGITMQVLSGLSAQTVPADVAPALVAGSNDKAAAAVRAHPDRFAAFAALPTAAPEAAVAELDRSVNELGFVGTLIMGRTEGEFLDAPRFEPILARAAALKVPVFLHPGVPPREITDSNYAAGLPTGIGTRLQTAAWGWHQETAVHFLHLVHSGVLDRYPDLQFILGHWGETIPFYLDRVDEALPQRATGLDRSFHEYFRENVYLAPSGMWSQAQLRFCLETFPLERIVFAVDYPFIGNEGAVPFLEKAELPEADKRKIAHENAERLLGL
- Fold Activity [1]: 1.9
- decarboxylation activity of dicamba [2]: showed decarboxylation activity of dicamba
- Enzymatic Detection level [2]: High
- Dicamba Decarboxylase Activity [2]: High

B11: 54 (protein, listed as Streptomyces sp.)
chain: MAKIIALEEHFSDPAVAKAGAARAQALSPGFAASYSPASGLPYSPSPEVLENLAEKRLADMDAGGITMQVLSGLGAQTVPADVAPALVAGSNDKAAAAVRAHPDRFAAFAALPTAAPEAAVAELDRSINELGFVGTLIMGRTEGEFLDAPRFEPILARAAALKVPVFLHPGVPPREITDSNYAAGLPTGIGTRLQTAAWGWHQETAVHFLHLVHSGVLDRYPGLQFILGHWGEMIPFYLDRVDEALPQRATGLDRSFHEYFRENVYLAPSGMWSQAQLRFCLETVPLERIVFAVDYPFIGNEGAVPFLEKAELPEADKRKIAHENAERLLGL
- Fold Activity [1]: 1.4
- decarboxylation activity of dicamba [2]: showed decarboxylation activity of dicamba
- Enzymatic Detection level [2]: High
- Dicamba Decarboxylase Activity [2]: High
